This note sets out measurements from patent publication US20240409638A1 (AVACTA LIFE SCIENCES, published 2024).

In test [1] the target is T1, murine serum albumin (MSA) (murine, UniProt P07724 25-608).
T1 construct: Bought reagent
The experiment in a line: SPR (Biacore): immobilized ligand MSA (Sigma # A3559), AFFIMER as analyte, pH 7.0 by the legend. A general note: In SPR one partner is held on a chip, and binding of the other changes the refractive index at the surface.

Test [2] addresses T2, PD-L1 on cells (NCI-H441 cells; aAPC PD-L1/CHO-K1 cells, Promega) (human, UniProt Q9NZQ7 19-290). The test is described as follows: cell-based or functional assay.
Test [3] has as its target T3, human serum albumin (HSA) (human, UniProt P02768 25-609).
T3 construct: The assays used bought HSA (Sigma #A37812 in the SPR work); also called HuSA
The experiment in a line: SPR, Biacore, HSA amine-coupled on CM5; mammalian-produced format. As to the method: (§1) For the HSA binding kinetic analysis, HSA (Sigma #A37812) was immobilized on a CM5 chip surface using amine coupling in 10 mM sodium acetate (pH 5.0) (Cytvia). […] The chip surface was regenerated with 3 mM NaOH for 20 seconds at a flow rate of 20 μl/min. The kinetic data was blank subtracted and fit to a 1:1 Langmuir binding model (BIAcore evaluation software; Cytiva).

For test [4], the target named is T4, human PD-L1-Fc (R&D Systems) (human, UniProt Q9NZQ7 19-239).
T4 construct: Bought reagent; also called huPD-L1-Fc; huPD-L1; not shown: Fc part of the bought fusion
The test is described as follows: SPR (Biacore 8K): human PD-L1-Fc amine-coupled on a CM5 chip, AFFIMER as analyte.

Test [5] addresses T4, human PD-L1-Fc (R&D Systems). The test is described as follows: human PD-L1-Fc binding ELISA: huPD-L1-Fc coated, anti-cystatin A detection. (In general: An ELISA detects its analyte on a solid surface through an enzyme-linked reagent.)
Test [6] concerns the target T3, human serum albumin (HSA). The test is described as follows: HSA binding ELISA: HSA coated, anti-cystatin A detection.
Test [7] concerns the target T3, human serum albumin (HSA). The test is described as follows: SPR (Biacore): immobilized ligand HSA (Sigma # A3782), AFFIMER as analyte, pH 7.0 by the legend. The procedure:
as §1

Test [8] addresses T1, murine serum albumin (MSA). The test is described as follows: SPR, Biacore, MSA amine-coupled on CM5; mammalian-produced format.
The target of test [9] is T4, human PD-L1-Fc (R&D Systems). The experiment in a line: PD-L1/PD-1 competition ELISA (binding inhibition %): human PD-1-Fc coated, AFFIMER preincubated with huPD-L1-Fc at its EC80, bound PD-L1 detected; blocked ligand: human PD-1-Fc. The table column is headed 'EC50 (nM)'; the text calls the values IC50. As to the method: Plates were washed two times with washing buffer (PBS, Tween 20 0.1%) with a plate washer and saturated with Casein 5% (Sigma) in PBS for 90 minutes at room temperature (25±1° C.). […] Plates were washed 3 times as described previously. […] Plates were washed 3 times as described previously and Streptavidin-HRP was added, and the plates were incubated for 30 minutes at room temperature (25±1° C.). Plates were washed a last time and the substrate (TMB; Pierce Thermo-Scientific) was added to the plate. After 10 minutes, the reaction was stopped using an acidic solution and the plates were read at absorbance 450-630 nm. The IC₅₀ was then calculated using the interpolated non-linear four-parameters standard curve.

Test [10] shares this target. The experiment in a line: SPR (Biacore 8K): human PD-L1-Fc amine-coupled on a CM5 chip, AFFIMER as analyte, 1:1 Langmuir fit.
In test [11] the target is T2, PD-L1 on cells (NCI-H441 cells; aAPC …). The experiment in a line: cell-based or functional assay. This is another data set of the same source.
In test [12] the target is T3, human serum albumin (HSA). The experiment in a line: HSA binding ELISA: HSA coated, bound AFFIMER detected with biotinylated anti-cystatin A antibody and streptavidin-HRP. As to the method:
(§2) Plates were washed and AFFIMER® polypeptides were detected using streptavidin-HRP for 30 min. After the last washing step, the TMB substrate was added for the development of the experiment and plates were read at 450 nm. The EC₅₀ was then calculated using the interpolated non-linear four-parameters standard curve.

Test [13] has as its target T4, human PD-L1-Fc (R&D Systems). The experiment in a line: huPD-L1-Fc binding ELISA.
The target of test [14] is T2, PD-L1 on cells (NCI-H441 cells; aAPC …). The test is described as follows: flow cytometry, % positive cells, aAPC PD-L1/CHO-K1 cells (overexpressing PD-L1). As to the method:
(§3) Lung cancer cell line (NCI-H441 (ATCC), CHO-K1 recombinant cell line overexpressing PD-L1 aAPC/CHO-K1 (Promega J1252)) and a negative cell line (CHO-K1, ATCC) were used to assess AFFIMER® agent binding capacity to PD-L1 by flow cytometry.
(§4) Briefly, 50 000 cells were added to each well of a 96-well microplate. After this step and each subsequent step, cells were washed twice with PBS+2 mM EDTA using 350g centrifugation for 3 minutes at 4° C. All steps were performed at 4° C. using assay buffer comprising 5% FBS, 2 mM EDTA and 0.05% sodium azide in PBS unless otherwise stated. Independent AFFIMER® agent dilutions were prepared in duplicate and added to the plates. […] Fixation was performed for 10 minutes at 4° C. with Fixation Buffer (Bio-techne FC004). Cells were resuspended in 100 ul assay buffer prior the acquisition of the data. 5000 events were collected by Flow cytometry (Millipore Guava 12HT). The results were gated on live cells and singlets (SSC-H vs SSC-A). The percentage of cells expressing PD-L1 bound by the AFFIMER® agent (positive cells) was determined by using as negative control (background) where the wells were stained with the AF488 conjugated secondary antibody only without AFFIMER® agent. The average of the duplicate wells was used to calculate EC₅₀ using a four-parameter non-linear regression curve fit using Graphpad Prism software. […]
(A flow cytometer gives signals particle by particle.)

The target is the same in test [15]. The experiment in a line: flow cytometry on NCI-H441 cells endogenously expressing PD-L1, anti-cystatin A antibody and AF488 secondary antibody, % positive cells.
Test [16] concerns the target T4, human PD-L1-Fc (R&D Systems). The experiment in a line: human PD-L1-Fc binding ELISA: huPD-L1-Fc coated, anti-cystatin A detection, with 10 µM HSA in the assay buffer. As to the method: as §2
Test [17] concerns the target T2, PD-L1 on cells (NCI-H441 cells; aAPC …). The test is described as follows: flow cytometry, % positive cells, NCI-H441 cells (endogenous PD-L1). The procedure:
as §3, §4

Test [18] has as its target T3, human serum albumin (HSA). The experiment in a line: SPR (Biacore 8K): HSA amine-coupled on a CM5 chip, AFFIMER as analyte, pH 7.4, 1:1 Langmuir fit. As to the method:
as §1

Test [19] addresses T3, human serum albumin (HSA). The experiment in a line: SPR (Biacore 8K): HSA amine-coupled on a CM5 chip, AFFIMER as analyte, pH 6.0, 1:1 Langmuir fit. As to the method: as §1
In test [20] the target is T4, human PD-L1-Fc (R&D Systems). The test is described as follows: human PD-L1-Fc/HSA bridging ELISA: huPD-L1-Fc coated, AFFIMER titrated with 10 µM HSA, detection with HRP-conjugated anti-HSA antibody (the signal needs PD-L1 and HSA bound at once). As to the method: After saturation with 5% casein/PBS buffer, the plates were washed and a dilution of AFFIMER® polypeptides or controls was incubated with HSA at a final concentration of 10 μM for 90 minutes. Plates were then washed, and a […] polyclonal antibody, anti-HSA (HRP-conjugated) (Abcam), was added for 90 minutes. After a last washing step, TMB was added for the development of the experiment and the plates were read at 450 nm. The EC₅₀ was then calculated using the interpolated non-linear four-parameters standard curve (FIG. 10).

The target is the same in test [21]. The experiment in a line: human PD-L1-Fc binding ELISA: huPD-L1-Fc coated, anti-cystatin A detection, no HSA in the assay buffer. As to the method:
as §2

Several values for one entry are separate records, joined by “and”; a condition that tells them apart may be missing. Identical values can stand only once.

T3 sequence (P02768 25-609): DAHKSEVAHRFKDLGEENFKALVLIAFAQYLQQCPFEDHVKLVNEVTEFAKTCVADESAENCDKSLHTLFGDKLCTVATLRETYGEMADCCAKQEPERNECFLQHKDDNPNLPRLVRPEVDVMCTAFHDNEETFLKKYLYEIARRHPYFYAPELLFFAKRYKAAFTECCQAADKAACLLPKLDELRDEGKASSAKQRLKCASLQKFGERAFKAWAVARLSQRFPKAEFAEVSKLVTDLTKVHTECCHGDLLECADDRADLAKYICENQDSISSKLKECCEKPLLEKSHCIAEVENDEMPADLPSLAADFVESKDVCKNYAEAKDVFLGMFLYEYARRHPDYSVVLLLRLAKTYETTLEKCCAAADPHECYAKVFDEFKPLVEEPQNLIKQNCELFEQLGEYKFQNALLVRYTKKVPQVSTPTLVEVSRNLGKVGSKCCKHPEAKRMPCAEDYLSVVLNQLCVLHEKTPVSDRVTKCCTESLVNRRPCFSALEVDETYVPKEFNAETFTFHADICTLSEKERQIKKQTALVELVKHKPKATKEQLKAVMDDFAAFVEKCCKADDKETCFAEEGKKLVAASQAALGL
T4 sequence (Q9NZQ7 19-239 limits assumed): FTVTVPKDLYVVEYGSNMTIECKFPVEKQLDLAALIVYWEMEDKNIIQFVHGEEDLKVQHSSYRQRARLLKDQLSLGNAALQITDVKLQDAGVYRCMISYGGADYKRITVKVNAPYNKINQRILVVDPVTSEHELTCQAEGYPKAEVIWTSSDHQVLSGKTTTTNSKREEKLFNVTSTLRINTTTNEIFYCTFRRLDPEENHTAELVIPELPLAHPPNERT
T2 sequence (Q9NZQ7 19-290): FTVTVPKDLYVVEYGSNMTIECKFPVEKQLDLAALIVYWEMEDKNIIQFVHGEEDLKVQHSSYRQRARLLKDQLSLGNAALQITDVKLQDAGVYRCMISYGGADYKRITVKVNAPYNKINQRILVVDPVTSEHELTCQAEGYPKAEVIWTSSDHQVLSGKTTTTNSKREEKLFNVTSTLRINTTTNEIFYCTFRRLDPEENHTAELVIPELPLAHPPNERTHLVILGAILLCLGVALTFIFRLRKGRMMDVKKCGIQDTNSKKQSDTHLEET

B1: Clone 80 XT38 (mammalian-produced anti-PD-L1 AFFIMER® ILF dimer XT) (designed binder)
chain: MIPGGLSEAKPATPEIQEIVDKVKPQLEEKTGETYGKLEAVQYKTQVVRRKHFPQWPGTNYYIKVRAGDNKYMHLKVFKSLDLQPREVFQEDLVLTGYQVDKNKDDELTGFAEAAAKEAAAKEAAAKEAAAKEAAAKEAAAKMIPGGLSEAKPATPEIQEIVDKVKPQLEEKTGETYGKLEAVQYKTQVVRRKHFPQWPGTNYYIKVRAGDNKYMHLKVFKSLDLQPREVFQEDLVLTGYQVDKNKDDELTGFAEAAAKEAAAKEAAAKEAAAKEAAAKEAAAKMIPRGLSEAKPATPEIQEIVDKVKPQLEEKTNETYGKLEAVQYKTQVLANFFQRRWPGSTNYYIKVRAGDNKYMHLKVFNGPWKFRNTDRGADRVLTGYQVDKNKDDELTGF
notes: Same trimeric ILF format as Clone 80 XT35, expressed in HEK (Expi293F) cells
For orientation: koff means the rate constant with which the complex falls apart. By kon is commonly meant the rate constant with which the complex forms. In general, Kd refers to the concentration at which binding is half-saturated. What is called EC50 is the concentration giving half of the maximal effect. High values mean lower potency in that assay, low ones higher potency in that assay. In the case of B1, the results for the off-rate (koff) in test [1], in [4] and in test [7] were 0.0741 s⁻¹, 8.41e-05 s⁻¹ and 0.00641 s⁻¹, respectively. The kon in [1] worked out at 179000 M⁻¹ s⁻¹; in [4], 974000 M⁻¹ s⁻¹; in [7] it was 412000 M⁻¹ s⁻¹. In addition, the “IC50 of PD-1/PD-L1 blockade (% of inhibition, Promega NFAT-luciferase reporter cells)” value in test [2] came to 57.9 nM. In addition, the Kd in [3] was 15.5 nM; in [4] it was 0.0864 nM; in [8], 413 nM. For the same molecule, the EC50 in [5] worked out at 0.02 nM; in test [6], 2.78 nM.

B2: Clone 80 (monomeric anti-PD-L1 AFFIMER® polypeptide) (designed binder)
chain: MIPGGLSEAKPATPEIQEIVDKVKPQLEEKTGETYGKLEAVQYKTQVVRRKHFPQWPGTNYYIKVRAGDNKYMHLKVFKSLDLQPREVFQEDLVLTGYQVDKNKDDELTGF
notes: Engineered Stefin A variant; also called anti-PD-L1 type I AFFIMER® polypeptide
Usually IC50 stands for the concentration needed to halve the response being measured. Read a low IC50 as inhibition by little substance. B2: the 50% inhibitory concentration (IC50) in test [9] came out at 1.63 nM. Further, the affinity in [10], expressed as Kd, was 0.449 nM. The figures for the EC50 in test [5] and in [13] were 0.21 nM and 0.2 nM, respectively. The “half-maximal concentration of PD-1/PD-L1 blockade (% of inhibition, NFAT-luciferase reporter cells; IC50)” value in test [11] was found to be 27.9 nM. For the same molecule, the binding result in test [12] is on record as “no binding”.

B3: Clone 80 XT34 (anti-PD-L1 type III AFFIMER® XT in-line fusion monomer XT) (designed binder)
chain: MIPGGLSEAKPATPEIQEIVDKVKPQLEEKTGETYGKLEAVQYKTQVVRRKHFPQWPGTNYYIKVRAGDNKYMHLKVFKSLDLQPREVFQEDLVLTGYQVDKNKDDELTGFAEAAAKEAAAKEAAAKEAAAKEAAAKEAAAKMIPRGLSEAKPATPEIQEIVDKVKPQLEEKTNETYGKLEAVQYKTQVLANFFQRRWPGSTNYYIKVRAGDNKYMHLKVFNGPWKFRNTDRGADRVLTGYQVDKNKDDELTGFHHHHHH
notes: Made in E. coli; LC/MS found a +42-43 Da species, assigned as acetylated; also called XT34_1; XT34_2
As usually defined, the EC50 (read off the curve) is the concentration giving half of the maximal effect. A high value points to a need for much substance. With B3, the EC50 in [14] is 0.1 nM; in [16], 0.03 nM; in test [12], 0.02 nM; in [17] it was 0.64 nM and 1.28 nM; in test [20], 0.56 nM; in test [21] it was 0.02 nM. In addition, in [15], the “EC50 (read off the curve)” value was approximately 1 nM. Further, in test [9], the half-maximal inhibitory concentration (IC50) was found to be 2.3 nM. Also, the figures for the equilibrium dissociation constant (Kd) in test [10], in [18] and in test [19] were 0.224 nM, 5.01 nM and 3.36 nM, respectively. For the same molecule, the “half-maximal concentration of PD-1/PD-L1 blockade (% of inhibition, NFAT-luciferase reporter cells; IC50)” value in test [11] was 105 nM. For the same molecule, the off-rate constant (koff) was 0.00364 s⁻¹ in [18] and 0.00271 s⁻¹ in [19]. The results for the association rate constant (kon) in test [18] and in [19] were 727000 M⁻¹ s⁻¹ and 808000 M⁻¹ s⁻¹, respectively.
